Experiments:
Aβ(1-40) [1] = target: T1, Aβ(1-40) (Homo sapiens, UniProt P05067); experiment: Time-dependent aggregation of Aβ(1-40), amount left in solution after 20,000 xg centrifugation; assay type: biochemical; details: in the presence of the peptide; Aβ(1-40) left in solution after 20,000 xg centrifugation
T1 construct: purchased Research Genetics, Huntsville, Ala., USA; host or cells: chemical synthesis
Description: The effects of the peptides KAD, AAA, and KFFE (SEQ ID NO:1) on the time-dependent aggregation of Aβ(1-40), determined as the amount of Aβ(1-40) left in solution after 20,000 xg centrifugation, were studied. In the presence of AAA, Aβ(1-40) completely aggregated in 10-15 days. In the presence of KAD, Aβ(1-40) completely aggregated in 30-40 days. In the presence of KFFE (SEQ ID NO:1), Aβ(1-40) completely aggregated in about 3 days (FIG. 8).

Aβ(1-40) [2] = target: T1, Aβ(1-40); experiment: Fibril formation by Aβ(1-40) with tripeptide ligand, electron microscopy; assay type: biochemical; details: 100 μM Aβ(1-40), 1 mM ligand peptide, three days at 37° C., PBS pH 7.4, electron microscopy, semi quantitative
Protocol: (§1) Synthetic peptides corresponding to human Aβ fragments 1-40 (amino acid sequence […]; SEQ ID NO:3), 12-24. and 14-23 were purchased from Research Genetics, Huntsville, Ala., USA. Aβ(1-40) was purified by reverse-phase HPLC over a C18 column, using a linear gradient of acetonitrile running into 0.1% trifluoroacetic acid for elution. The purified peptide was lyophilized, stored at −20° C. and dissolved shortly before experiments. The tripeptides and tetrapeptides were synthesized and purified by reverse-phase HPLC (>70% purity) by Interactiva, Darmstadt, Germany
(§2) The relative abundance and morphology of fibrils was determined by electron microscopy after incubating each of the three Aβ peptides (100 μM) for three days at 37° C. in phosphate buffered saline (50 mM sodium phosphate/150 mM NaCl, pH 7.4) in the presence of 1 mM of a specific tripeptide or tetrapeptide ligand. Aggregates were collected by centrifugation at 20,000×g for 20 minutes. The pellets were suspended in a small volume of water by low-energy sonication for 5 seconds. Aliquots of 8 μl were placed on electron microscopy grids covered by a carbon-stabilized formvar film. Excess fluid was withdrawn after 30 seconds, and after air-drying the grids were negatively stained with 2% uranyl acetate in water. The stained grids were examined and photographed in a Philips CM120TWIN electron microscope operated at 80 kV. For a semi quantitative evaluation of the amount of material in the different specimens, the grids (50 mesh) were first scanned at low magnification and the number of larger fibril bundles per grid square estimated. The specimens were subsequently examined at high magnification to judge the size of the fibril bundles, the presence of smaller fibril aggregates, and the morphology of the individual fibrils.

[3] = conditions where Aβ(1-42) readily forms fibrils; Tjernberg et al. 1996, 1999; cited from earlier work
Aβ(14-23) = target: T2, Aβ(14-23) (Homo sapiens, UniProt P05067); experiment: Fibril formation by Aβ(14-23) with tripeptide or tetrapeptide ligand, electron microscopy; assay type: biochemical; details: for reduction of Aβ fibrillation or aggregation: summary statement, Aβ peptide not specified (FIG. 7: Aβ(14-23)); for density of Aβ(14-23) fibrils (fibril formation): 100 μM Aβ(14-23), 1 mM ligand peptide, three days at 37° C., PBS pH 7.4, electron microscopy, semi quantitative
T2 construct: 12-24. and 14-23 were purchased from Research Genetics; purchased Research Genetics, Huntsville, Ala., USA; host or cells: chemical synthesis
Protocol: as §1, §2

Aβ(1-40) [4] = target: T1, Aβ(1-40); experiment: Fibril morphology of Aβ(1-40) in the presence of peptides, electron microscopy; assay type: biochemical; details: in the presence of the peptide, compared with AAA or acetyl-AAA-amide
Protocol: as §2

Aβ(12-24) = target: T3, Aβ(12-24) (Homo sapiens, UniProt P05067); experiment: Fibril formation by Aβ(12-24) with tripeptide ligand, electron microscopy; assay type: biochemical; details: 100 μM Aβ(12-24), 1 mM ligand peptide, three days at 37° C., PBS pH 7.4, electron microscopy, semi quantitative
T3 construct: 12-24. and 14-23 were purchased from Research Genetics; purchased Research Genetics, Huntsville, Ala., USA; host or cells: chemical synthesis
Protocol: as §1
as §2, with “Excess fluid was withdrawn after 30 seconds, and after air-drying the grids were negatively stained with 2% uranyl acetate in water. The stained grids were examined and photographed in a Philips CM120TWIN electron microscope operated at 80 kV.” left out, “The specimens were subsequently examined at high magnification to judge the size of the fibril bundles, the presence of smaller fibril aggregates, and the morphology of the individual fibrils.” left out

[5] = Fibril formation of proteins with long discordant helices, electron microscopy of 20,000×g pellets; assay type: physicochemical; details: 10 μM to 100 μM in phosphate buffered saline pH 7.4, 37° C., three days
Description: The proteins used in these experiments included SP-C (lung SP-C forms amyloid in pulmonary alveolar proteinosis) purified from porcine lungs (Curstedt et al, 1987, Eur. J. Biochem. 168:255-262). PolyVal→polyLeu substituted SP-C (SP-C(Leu)) analogue was synthesized as described by Nilsson et al. (1998, Eur. J. Biochem, 255:116-124) was used in the experiments as was D-analyl-D-alanine transpeptidase from Streptomyces R61 was obtained from Drs. Frére and Joris, University of Liege, Belgium (Frere et al, 1973, Biochem. J. 135:463-468). Triacylglycerol lipase from Candida antarctica and human coagulation factor XIII were purchased from Sigma. For these fibrillation studies the latter three proteins were dissolved in phosphate buffered saline, pH 7.4, in concentrations ranging from 10 μM to 100 μM. SP—C and SP-C (Leu) were dissolved at 100 μM or 250 μM in chloroform/methanol/0.1 M HCl, 32:64:5 (by volume).
To assay for the formation of fibrils, the protein solutions were incubated at 37° C. for three days, then centrifuged at 20,000×g for 20 minutes. The concentrations of SP-C and SP-C(Leu) in the supernatants were determined by amino acid analysis of triplicate samples. Peptide concentration at start of the incubations was 250 μM for SP-C(Leu) and 100 μM for SP-C. […]

T1 sequence (P05067 672-711): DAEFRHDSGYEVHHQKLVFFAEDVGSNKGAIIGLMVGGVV

AAA
time until Aβ(1-40) completely aggregated (Aβ(1-40) [1]): 10 to 15 days | density of Aβ(1-40) fibrils (fibril formation) (Aβ(1-40) [2]): no significant effect

Aβ(1-28) with alanine substitutions at positions 16, 17, and 20: Aβ(1-28) variant K16A, L17A, F20A (DAEFRHDSGYEVHHQAAVFAAEDVGSNK; Amyloid-beta protein 42; UniProt P05067 672-699, looked up, variant K16A L17A F20A)
fibril formation of the Aβ analogue itself [3]: does not form fibrils

KAAE (Synthetically generated peptide) [dipolar tetrapeptide KAAE]
reduction of Aβ fibrillation or aggregation (Aβ(14-23)): did not reduce

KAD
density of Aβ(14-23) fibrils (fibril formation) (Aβ(14-23)): significant reduction of fibril density | morphology of Aβ(1-40) fibrillar structures (Aβ(1-40) [4]): much shorter and more dispersed | time until Aβ(1-40) completely aggregated (Aβ(1-40) [1]): 30 to 40 days | density of Aβ(1-40) fibrils (fibril formation) (Aβ(1-40) [2]): significant reduction of fibril density | density of Aβ(12-24) fibrils (fibril formation) (Aβ(12-24)): significant reduction of fibril density

KFD [dipolar tripeptide, central Ala of KAD replaced with Phe]
density of Aβ(14-23) fibrils (fibril formation) (Aβ(14-23)): reduced Aβ(14-23) fibril formation, but to a lesser extent than KAD

KFFE (Synthetically generated peptide) [dipolar tetrapeptide KFFE]
density of Aβ(14-23) fibrils (fibril formation) (Aβ(14-23)): slightly promote fibril formation | reduction of Aβ fibrillation or aggregation (Aβ(14-23)): did not reduce | time until Aβ(1-40) completely aggregated (Aβ(1-40) [1]): about 3 days

acetyl-AAA-amide
density of Aβ(1-40) fibrils (fibril formation) (Aβ(1-40) [2]): no significant effect

acetyl-KAD-amide (Ac-Lys-Ala-Asp-NH2)
morphology of Aβ(1-40) fibrillar structures (Aβ(1-40) [4]): much shorter and more dispersed | density of Aβ(1-40) fibrils (fibril formation) (Aβ(1-40) [2]): equally efficient in reducing Aβ(1-40) fibril formation as the KAD peptide with free termini

coagulation factor XIII: human coagulation factor XIII, purchased from Sigma
fibril formation of the protein itself [5]: form fibrils

unsubstituted Aβ(1-28): positions 1-28 of human Aβ
fibril formation of the Aβ analogue itself [3]: forms fibrils

From patent US9580460B2, “Discordant helix stabilization for prevention of amyloid formation” (AlphaBeta AB, priority 2000, dated 2017)
